Assay results reported in PMC10267887.
Values joined by “and” are separate entries in the source; they are usually repeats but may differ in a detail not shown here. Equal entries are not always repeated.

Legend:
[1] = biological target: fibroblast growth factor 2 fused to GFP (FGF2-GFP), His-tagged (UniProt P09038); assay: dual(+1)-FCS (brightness analysis by fluorescence correlation spectroscopy); as a1; FINAL state (t >= 240 min), (leaky to leaky) GUVs only
[2] = biological target: fibroblast growth factor 2 fused to GFP (FGF2-GFP), His-tagged (UniProt P09038); assay: dual(+1)-FCS (brightness analysis by fluorescence correlation spectroscopy); as a1; INITIAL state (t = 60-120 min), leaky, (leaky to leaky) GUVs
[3] = biological target: fibroblast growth factor 2 fused to GFP (FGF2-GFP), His-tagged (UniProt P09038); assay: dual(+1)-FCS (brightness analysis by fluorescence correlation spectroscopy); 200 nM FGF2-GFP on immobilised GUVs of plasma-membrane-like lipids with 2 mol % PI(4,5)P2, HEPES buffer (25 mM HEPES, 150 mM NaCl, pH 7.4); average oligomeric state per GUV; FINAL state (t >= 240 min), permeabilized (leaky) GUVs

stoichiometry N [1]: < 10 m.u. and 4.21 m.u.
stoichiometry N [2]: 2 and 6
stoichiometry N [3]: 2 and 6
Substance: fibroblast growth factor 2 fused to GFP (FGF2-GFP), His-tagged (from UniProt P09038 1-288) (natural protein)
